# PMC3413117 (Nucleic Acids Research, 2012)
# T1: LiBRCA2 (Leishmania infantum, UniProt A4HYJ9 1-1165)
# T1 sequence: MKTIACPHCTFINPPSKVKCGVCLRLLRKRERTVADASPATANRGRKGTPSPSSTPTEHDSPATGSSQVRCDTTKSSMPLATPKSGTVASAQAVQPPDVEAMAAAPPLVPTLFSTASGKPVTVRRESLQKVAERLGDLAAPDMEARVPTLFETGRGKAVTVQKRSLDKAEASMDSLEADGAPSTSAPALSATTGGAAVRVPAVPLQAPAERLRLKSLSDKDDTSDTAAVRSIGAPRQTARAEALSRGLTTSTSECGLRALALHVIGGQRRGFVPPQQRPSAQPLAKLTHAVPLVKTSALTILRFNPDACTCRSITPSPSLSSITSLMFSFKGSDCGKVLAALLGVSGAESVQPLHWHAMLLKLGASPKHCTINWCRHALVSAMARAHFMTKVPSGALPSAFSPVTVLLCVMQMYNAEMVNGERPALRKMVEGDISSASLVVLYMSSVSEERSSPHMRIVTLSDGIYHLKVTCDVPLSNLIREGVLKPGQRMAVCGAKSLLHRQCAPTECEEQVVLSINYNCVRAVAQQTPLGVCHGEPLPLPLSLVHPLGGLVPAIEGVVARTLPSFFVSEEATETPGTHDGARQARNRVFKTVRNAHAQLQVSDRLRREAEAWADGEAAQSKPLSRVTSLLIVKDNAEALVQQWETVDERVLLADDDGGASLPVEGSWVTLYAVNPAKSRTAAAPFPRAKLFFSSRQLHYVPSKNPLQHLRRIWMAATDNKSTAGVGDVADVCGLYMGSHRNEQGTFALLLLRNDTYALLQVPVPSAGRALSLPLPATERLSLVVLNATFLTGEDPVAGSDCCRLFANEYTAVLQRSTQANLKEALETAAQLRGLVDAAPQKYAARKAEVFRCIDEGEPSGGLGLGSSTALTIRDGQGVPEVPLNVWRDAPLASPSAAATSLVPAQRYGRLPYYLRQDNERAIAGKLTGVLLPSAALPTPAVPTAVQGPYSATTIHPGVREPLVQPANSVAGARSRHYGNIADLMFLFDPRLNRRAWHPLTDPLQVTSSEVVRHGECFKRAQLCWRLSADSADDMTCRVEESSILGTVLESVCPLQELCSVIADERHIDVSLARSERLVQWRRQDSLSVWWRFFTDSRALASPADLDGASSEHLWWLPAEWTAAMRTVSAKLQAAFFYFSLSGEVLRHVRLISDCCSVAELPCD
# T2: LiBRCA2-B1 (Leishmania infantum, UniProt A4HYJ9 1-122)
# T2 sequence: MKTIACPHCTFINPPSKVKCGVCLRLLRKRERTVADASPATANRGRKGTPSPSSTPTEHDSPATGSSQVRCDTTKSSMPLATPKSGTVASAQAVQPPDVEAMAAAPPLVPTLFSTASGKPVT
# B1: Leishmania infantum RAD51, purified (GST tag cleaved) (natural protein)
# chain: MQTRSKAKGRRGRPSARPSEEVEVVESQPQEALQNEEQEPRQQQQQSTDMAEPNASGFRVIQILENYGVASSDIKKLMECGFYTVESAAYAPKKAILAVKGISENKAEKIMAECAKLVPMGFTSAVAYHEARKEIIMVTTGSREVDKLLGGGIETGSITELFGEFRTGKTQLCHTLCVTCQLPISQGGAEGMALYIDTEGTFRPERLVAVAERYKLDPEDVLANVACARAFNTDHQQQLLLQASAMMAENRFALIVVDSATALYRTDYSGRNELAARQMHLGKFLRSLHNLAEEYGVAVVVTNQVVANVDGSAQMFQADSKKPIGGHIMAHASTTRLSLRKGRGEQRIIKVYDSPCLAEAEAIFGIYDDGVGDARD
# B2: Leishmania infantum BRCA2, purified LiBRCA2-His (GST tag cleaved) (natural protein)
# chain: T1 sequence
# B3: 60-mer ssDNA (JYM925) (ssDNA)
# DNA: GGGTGAACCTGCAGGTGGGCAAAGATGTCCTAGCAATGTAATCGTCAAGCTTTATGCCGT
# B4: 60-mer dsDNA (JYM925/JYM945) (dsDNA)
# DNA 1: B3 DNA
# DNA 2: ACGGCATAAAGCTTGACGATTACATTGCTAGGACATCTTTGCCCACCTGCAGGTTCACCC
# Legend:
# SEC = target: the molecule itself; assay: SEC
# LiBRCA2 = target: T1, LiBRCA2; assay: EMSA
# LiBRCA2-B1 = target: T2, LiBRCA2-B1; assay: EMSA
Binder,binding result (SEC),binding result (LiBRCA2),binding result (LiBRCA2-B1)
B1,binds,,
B2,binds,,
B3,,binds,no binding
B4,,no binding,
